Experimental findings from article PMC4383067 are described below.

One may read the stoichiometry N as a count of units in the complex or per binding partner.

The test deals with Full-length human acetylcholinesterase (dimeric, recombinant) (human) (UniProt P22303). In words: SEC-MALS. On the technique in general: Size exclusion chromatography separates by hydrodynamic size, large species first.

In the case of “Full-length human acetylcholinesterase (dimeric, recombinant) (from UniProt P22303 32-614) (enzyme)”, the stoichiometry N is 2.
